Experimental findings from US20230395193A1 (priority 2020, published 2023) are described below.

First the molecules themselves.
B1: M-Q9NQC3 (protein, UniProt Q9NQC3 1-1192, looked up)
Reticulon-4: MEDLDQSPLVSSSDSPPRPQPAFKYQFVREPEDEEEEEEEEEEDEDEDLEELEVLERKPAAGLSAAPVPTAPAAGAPLMDFGNDFVPPAPRGPLPAAPPVAPERQPSWDPSPVSSTVPAPSPLSAAAVSPSKLPEDDEPPARPPPPPPASVSPQAEPVWTPPAPAPAAPPSTPAAPKRRGSSGSVDETLFALPAASEPVIRSSAENMDLKEQPGNTISAGQEDFPSVLLETAASLPSLSPLSAASFKEHEYLGNLSTVLPTEGTLQENVSEASKEVSEKAKTLLIDRDLTEFSELEYSEMGSSFSVSPKAESAVIVANPREEIIVKNKDEEEKLVSNNILHNQQELPTALTKLVKEDEVVSSEKAKDSFNEKRVAVEAPMREEYADFKPFERVWEVKDSKEDSDMLAAGGKIESNLESKVDKKCFADSLEQTNHEKDSESSNDDTSFPSTPEGIKDRSGAYITCAPFNPAATESIATNIFPLLGDPTSENKTDEKKIEEKKAQIVTEKNTSTKTSNPFLVAAQDSETDYVTTDNLTKVTEEVVANMPEGLTPDLVQEACESELNEVTGTKIAYETKMDLVQTSEVMQESLYPAAQLCPSFEESEATPSPVLPDIVMEAPLNSAVPSAGASVIQPSSSPLEASSVNYESIKHEPENPPPYEEAMSVSLKKVSGIKEEIKEPENINAALQETEAPYISIACDLIKETKLSAEPAPDFSDYSEMAKVEQPVPDHSELVEDSSPDSEPVDLFSDDSIPDVPQKQDETVMLVKESLTETSFESMIEYENKEKLSALPPEGGKPYLESFKLSLDNTKDTLLPDEVSTLSKKEKIPLQMEELSTAVYSNDDLFISKEAQIRETETFSDSSPIEIIDEFPTLISSKTDSFSKLAREYTDLEVSHKSEIANAPDGAGSLPCTELPHDLSLKNIQPKVEEKISFSDDFSKNGSATSKVLLLPPDVSALATQAEIESIVKPKVLVKEAEKKLPSDTEKEDRSPSAIFSAELSKTSVVDLLYWRDIKKTGVVFGASLFLLLSLTVFSIVSVTAYIALALLSVTISFRIYKGVIQAIQKSDEGHPFRAYLESEVAISEELVQKYSNSALGHVNCTIKELRRLFLVDDLVDSLKFAVLMWVFTYVGALFNGLTLLILALISLFSVPVIYERHQAQIDHYLGLANKNVKDAMAKIQAKIPGLKRKAE
B2: M-Q9UBU6 (protein, UniProt Q9UBU6 1-413, looked up)
Protein FAM8A1: MAEGPEEARGHPPGQDDGGGDHEPVPSLRGPPTTAVPCPRDDPQAEPQAPGRPTAPGLAAAAAADKLEPPRELRKRGEAASGSGAELQEQAGCEAPEAAAPRERPARLSAREYSRQVHEWLWQSYCGYLTWHSGLAAFPAYCSPQPSPQSFPSGGAAVPQAAAPPPPQLGYYNPFYFLSPGAAGPDPRTAAGISTPAPVAGLGPRAPHVQASVRATPVTRVGSAAPSRSPSETGRQAGREYVIPSLAHRFMAEMVDFFILFFIKATIVLSIMHLSGIKDISKFAMHYIIEEIDEDTSMEDLQKMMVVALIYRLLVCFYEIICIWGAGGATPGKFLLGLRVVTCDTSVLIAPSRVLVIPSSNVSITTSTIRALIKNFSIASFFPAFITLLFFQHNRTAYDIVAGTIVVKRNGVR
modifications: interaction partner of viral M protein
B3: M-Q9BV40 (protein, UniProt Q9BV40 1-100, looked up)
Vesicle-associated membrane …: MEEASEGGGNDRVRNLQSEVEGVKNIMTQNVERILARGENLEHLRNKTEDLEATSEHFKTTSQKVARKFWWKNVKMIVLICVIVFIIILFIVLFATGAFS
modifications: host interactor of M
B4: M-Q9BQT8 (protein, UniProt Q9BQT8 1-299, looked up)
Mitochondrial …: MSAKPEVSLVREASRQIVAGGSAGLVEICLMHPLDVVKTRFQIQRCATDPNSYKSLVDSFRMIFQMEGLFGFYKGILPPILAETPKRAVKFFTFEQYKKLLGYVSLSPALTFAIAGLGSGLTEAIVVNPFEVVKVGLQANRNTFAEQPSTVGYARQIIKKEGWGLQGLNKGLTATLGRHGVFNMVYFGFYYNVKNMIPVNKDPILEFWRKFGIGLLSGTIASVINIPFDVAKSRIQGPQPVPGEIKYRTCFKTMATVYQEEGILALYKGLLPKIMRLGPGGAVMLLVYEYTYSWLQENW
modifications: interaction partner of viral M protein
B5: M-Q9BQ95 (protein, UniProt Q9BQ95 49-431, looked up)
Evolutionarily conserved …: SSEQSLVPSPPEPRQRPTKALVPFEDLFGQAPGGERDKASFLQTVQKFAEHSVRKRGHIDFIYLALRKMREYGVERDLAVYNQLLNIFPKEVFRPRNIIQRIFVHYPRQQECGIAVLEQMENHGVMPNKETEFLLIQIFGRKSYPMLKLVRLKLWFPRFMNVNPFPVPRDLPQDPVELAMFGLRHMEPDLSARVTIYQVPLPKDSTGAADPPQPHIVGIQSPDQQAALARHNPARPVFVEGPFSLWLRNKCVYYHILRADLLPPEEREVEETPEEWNLYYPMQLDLEYVRSGWDNYEFDINEVEEGPVFAMCMAGAHDQATMAKWIQGLQETNPTLAQIPVVFRLAGSTRELQTSSAGLEEPPLPEDHQEEDDNLQRQQQGQS
B6: M-Q9NVI1 (protein, UniProt Q9NVI1 1-1328, looked up)
Fanconi anemia group I protein: MDQKILSLAAEKTADKLQEFLQTLREGDLTNLLQNQAVKGKVAGALLRAIFKGSPCSEEAGTLRRRKIYTCCIQLVESGDLQKEIASEIIGLLMLEAHHFPGPLLVELANEFISAVREGSLVNGKSLELLPIILTALATKKENLAYGKGVLSGEECKKQLINTLCSGRWDQQYVIQLTSMFKDVPLTAEEVEFVVEKALSMFSKMNLQEIPPLVYQLLVLSSKGSRKSVLEGIIAFFSALDKQHNEEQSGDELLDVVTVPSGELRHVEGTIILHIVFAIKLDYELGRELVKHLKVGQQGDSNNNLSPFSIALLLSVTRIQRFQDQVLDLLKTSVVKSFKDLQLLQGSKFLQNLVPHRSYVSTMILEVVKNSVHSWDHVTQGLVELGFILMDSYGPKKVLDGKTIETSPSLSRMPNQHACKLGANILLETFKIHEMIRQEILEQVLNRVVTRASSPISHFLDLLSNIVMYAPLVLQSCSSKVTEAFDYLSFLPLQTVQRLLKAVQPLLKVSMSMRDCLILVLRKAMFANQLDARKSAVAGFLLLLKNFKVLGSLSSSQCSQSLSVSQVHVDVHSHYNSVANETFCLEIMDSLRRCLSQQADVRLMLYEGFYDVLRRNSQLANSVMQTLLSQLKQFYEPKPDLLPPLKLEACILTQGDKISLQEPLDYLLCCIQHCLAWYKNTVIPLQQGEEEEEEEEAFYEDLDDILESITNRMIKSELEDFELDKSADFSQSTSIGIKNNICAFLVMGVCEVLIEYNFSISSFSKNRFEDILSLFMCYKKLSDILNEKAGKAKTKMANKTSDSLLSMKFVSSLLTALFRDSIQSHQESLSVLRSSNEFMRYAVNVALQKVQQLKETGHVSGPDGQNPEKIFQNLCDITRVLLWRYTSIPTSVEESGKKEKGKSISLLCLEGLQKIFSAVQQFYQPKIQQFLRALDVTDKEGEEREDADVSVTQRTAFQIRQFQRSLLNLLSSQEEDFNSKEALLLVTVLTSLSKLLEPSSPQFVQMLSWTSKICKENSREDALFCKSLMNLLFSLHVSYKSPVILLRDLSQDIHGHLGDIDQDVEVEKTNHFAIVNLRTAAPTVCLLVLSQAEKVLEEVDWLITKLKGQVSQETLSEEASSQATLPNQPVEKAIIMQLGTLLTFFHELVQTALPSGSCVDTLLKDLCKMYTTLTALVRYYLQVCQSSGGIPKNMEKLVKLSGSHLTPLCYSFISYVQNKSKSLNYTGEKKEKPAAVATAMARVLRETKPIPNLIFAIEQYEKFLIHLSKKSKVNLMQHMKLSTSRDFKIKGNILDMVLREDGEDENEEGTASEHGGQNKEPAKKKRKK
modifications: interactor of viral M protein
B7: M-Q9BYC5 (protein, UniProt Q9BYC5 1-575, looked up)
Alpha-(1,6)-fucosyltransferase: MRPWTGSWRWIMLILFAWGTLLFYIGGHLVRDNDHPDHSSRELSKILAKLERLKQQNEDLRRMAESLRIPEGPIDQGPAIGRVRVLEEQLVKAKEQIENYKKQTRNGLGKDHEILRRRIENGAKELWFFLQSELKKLKNLEGNELQRHADEFLLDLGHHERSIMTDLYYLSQTDGAGDWREKEAKDLTELVQRRITYLQNPKDCSKAKKLVCNINKGCGYGCQLHHVVYCFMIAYGTQRTLILESQNWRYATGGWETVFRPVSETCTDRSGISTGHWSGEVKDKNVQVVELPIVDSLHPRPPYLPLAVPEDLADRLVRVHGDPAVWWVSQFVKYLIRPQPWLEKEIEEATKKLGFKHPVIGVHVRRTDKVGTEAAFHPIEEYMVHVEEHFQLLARRMQVDKKRVYLATDDPSLLKEAKTKYPNYEFISDNSISWSAGLHNRYTENSLRGVILDIHFLSQADFLVCTFSSQVCRVAYEIMQTLHPDASANFHSLDDIYYFGGQNAHNQIAIYAHQPRTADEIPMEPGDIIGVAGNHWDGYSKGVNRKLGRTGLYPSYKVREKIETVKYPTYPEAEK
modifications: interaction partner of SARS-CoV-2 M

This test has as its system SARS-CoV-1, MERS-CoV and SARS-CoV-2 proteins in HEK293T cells. Details: species or system human.
As to B1, the MIST_MERS is recorded as 0, the MIST_SARS1 was 0.4448, the MIST_SARS2 was 0.8738 and the Saint_MERS was determined as 0. Also, the Saint_SARS1 worked out at 1 and the Saint_SARS2 turned out to be 1.

As for B2, the MIST_MERS is recorded as 0, the MIST_SARS1 amounted to 0.88, the MIST_SARS2 worked out at 0.8045 and the Saint_MERS was determined as 0. Further, the Saint_SARS1 is 0.63 and the Saint_SARS2 is reported as 0.97.

For B3, the MIST_MERS is reported as 0.9874, the MIST_SARS1 is listed as 0, the MIST_SARS2 turned out to be 0 and the Saint_MERS is recorded as 1. The same molecule gave a Saint_SARS1 of 0 and a Saint_SARS2 of 0.

On to B4, for which the MIST_MERS is reported as 0.4327, the MIST_SARS1 is listed as 0.6946, the MIST_SARS2 came to 0.8808 and the Saint_MERS turned out to be 0. Also, the Saint_SARS1 is given as 0.65 and the Saint_SARS2 is 0.65.

As for B5, the MIST_MERS was found to be 0, the MIST_SARS1 is given as 0.9893, the MIST_SARS2 came out at 0 and the Saint_MERS was 0. The molecule further registered a Saint_SARS1 of 0.97 and a Saint_SARS2 of 0.

As to B6, the MIST_MERS is 0.8133, the MIST_SARS1 was 0.7245, the MIST_SARS2 turned out to be 0.5573 and the Saint_MERS is on record as 1. The same molecule displayed a Saint_SARS1 of 1 and a Saint_SARS2 of 1.

As for B7, the MIST_MERS amounted to 0.963, the MIST_SARS1 is recorded as 0, the MIST_SARS2 is listed as 0 and the Saint_MERS was determined as 0.98. The Saint_SARS1 was determined as 0 and the Saint_SARS2 was determined as 0.
